Key:
[1] = molecular target: T1, human ROR1 expressed on the cell surface (human, UniProt Q01973 30-937); assay: flow cytometry on HT29 cells (colon cancer), C2E3 IgG, FITC anti-human Fc detection
T1 construct: whole, on cells; also called cell surface-expressed ROR1 antigen; ROR1 on JeKo-1, Mino, CHO-human ROR1, MC38-human ROR1 and other cancer cell lines
Procedure: (§1) FACS analysis (FACSCalibur, BD Biosciences) was used to analyze the binding of the anti-ROR1 antibody of the present invention to ROR1 in the above cell lines.
(§2) Specifically, the respective cell lines were dissociated and washed in PBS, then the numbers of cells were counted and adjusted to 2×10⁵ cells/200 PBS. Then, they were treated with 10 /mL of the antibody of clone name C2E3 of the ROR1 monoclonal antibodies prepared in Embodiment 3, and reacted for 1 hour at 4° C. After the reaction, the cells were washed in PBS, then FITC-marked constant region (Fc) specific antibody (Goat anti-human IgG FITC conjugate, Fc specific, Sigma, F9512, concentration 20 mg/ml) was suspended in 2 /1×10⁵ cells/200 PBS and reacted for 1 hour at 4° C. After reacting, the cells were washed with PBS and analyzed with the FACSCalibur equipment. The negative control was only treated with FITC-marked constant region (Fc) specific antibody. To compare the degree of ROR1 expression among the respective cancer cell lines, the quotient of dividing the shifted readings for the experimental group treated with the ROR1 monoclonal antibody (C2E3) of the present invention by the shifted readings for the control group (MFI Ratio: MFI of anti-ROR1/MFI or 2nd Ab) is indicated.

[2] = molecular target: T2, recombinant human ROR1-His (Sino Biological, 13968-H08H) (human, UniProt Q01973 30-406); assay: BLI (Octet), ROR1-His on Anti-Penta-His or AR2G biosensor, IgG 30 to 0.021 nM, 1:1 fit
T2 construct: extracellular domain; Bought protein; also called ROR1-HIS protein; not shown: His tag
T2 sequence (Q01973 30-406): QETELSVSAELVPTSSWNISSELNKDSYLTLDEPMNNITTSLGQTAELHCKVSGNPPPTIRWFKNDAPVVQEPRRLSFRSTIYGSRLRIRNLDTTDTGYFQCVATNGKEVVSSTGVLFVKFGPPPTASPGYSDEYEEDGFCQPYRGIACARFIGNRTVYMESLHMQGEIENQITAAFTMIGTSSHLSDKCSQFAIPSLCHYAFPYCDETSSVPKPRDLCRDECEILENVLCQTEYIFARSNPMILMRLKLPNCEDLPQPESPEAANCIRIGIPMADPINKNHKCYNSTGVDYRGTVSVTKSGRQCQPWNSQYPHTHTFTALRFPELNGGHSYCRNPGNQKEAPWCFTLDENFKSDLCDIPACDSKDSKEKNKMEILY

[3] = molecular target: T1, human ROR1 expressed on the cell surface; assay: flow cytometry on H460 cells (lung cancer), C2E3 IgG, FITC anti-human Fc detection
Procedure: as §1, §2

[4] = molecular target: T2, recombinant human ROR1-His (Sino …); assay: ELISA, wells coated with human ROR1 protein (sheet: 'human ROR1'; text: ROR1-Fc or ROR1-His), IgG titrated, HRP anti-Fab detection, OD (450-650nm)
[5] = molecular target: T1, human ROR1 expressed on the cell surface; assay: flow cytometry on JeKo-1 cells (MCL), C2E3 IgG, FITC anti-human Fc detection
Procedure: as §1, §2

T1 sequence (Q01973 30-937): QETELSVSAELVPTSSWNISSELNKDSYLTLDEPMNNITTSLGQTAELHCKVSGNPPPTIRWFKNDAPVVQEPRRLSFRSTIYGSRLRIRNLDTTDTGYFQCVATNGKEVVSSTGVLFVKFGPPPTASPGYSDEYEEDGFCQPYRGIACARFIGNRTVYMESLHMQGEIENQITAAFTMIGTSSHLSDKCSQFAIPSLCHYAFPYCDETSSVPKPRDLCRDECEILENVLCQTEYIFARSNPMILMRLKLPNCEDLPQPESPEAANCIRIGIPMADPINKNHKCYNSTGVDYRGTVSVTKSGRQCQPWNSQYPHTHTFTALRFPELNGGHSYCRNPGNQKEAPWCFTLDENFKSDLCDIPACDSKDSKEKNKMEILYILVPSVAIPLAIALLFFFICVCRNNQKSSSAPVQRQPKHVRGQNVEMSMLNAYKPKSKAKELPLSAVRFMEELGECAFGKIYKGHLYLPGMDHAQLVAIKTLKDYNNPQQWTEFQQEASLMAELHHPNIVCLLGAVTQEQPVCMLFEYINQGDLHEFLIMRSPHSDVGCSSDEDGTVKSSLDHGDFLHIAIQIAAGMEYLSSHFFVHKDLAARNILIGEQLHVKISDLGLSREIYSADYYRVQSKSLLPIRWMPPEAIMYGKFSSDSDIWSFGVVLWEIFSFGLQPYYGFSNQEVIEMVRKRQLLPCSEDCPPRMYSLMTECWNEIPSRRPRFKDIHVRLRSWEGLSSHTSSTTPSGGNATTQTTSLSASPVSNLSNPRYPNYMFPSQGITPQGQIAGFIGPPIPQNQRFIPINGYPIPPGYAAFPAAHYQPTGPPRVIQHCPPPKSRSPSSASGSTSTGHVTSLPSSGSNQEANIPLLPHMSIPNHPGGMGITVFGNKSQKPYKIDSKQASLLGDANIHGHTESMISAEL

B1: anti-ROR1 IgG antibody C2E3 (antibody, V domains shown)
VH: EVQLLESGGGLVQPGGSLRLSCAASGFTFSNYAMSWVRQAPGKGLEWVSSISHNSGSTYYADSVKGRFTISRDNSKNTLYLQMNSLRAEDTAVYYCAKFISARKSLGRSYSNGMDVWGQGTLVTVSS
VL: QSVLTQPPSASGTPGQRVTISCTGSSSNIGSNDVTWYQQLPGTAPKLLIYADSKRPSGVPDRFSGSKSGTSASLAISGLRSEDEADYYCGTWDYSLSGYVFGGGTKLTVLG
notes: Full IgG form (human IgG1 constant region, lambda light chain), expressed in CHO-S cells
- Mean Fold Ratio (MFI of anti-ROR1 / MFI of 2nd Ab) [1]: 3.9
- kon [2]: 5.46e+06 M⁻¹ s⁻¹
- Mean Fold Ratio (MFI of anti-ROR1 / MFI of 2nd Ab) [3]: 10.9
- EC50 (read off the curve) [4]: ~0.2 nM
- Mean Fold Ratio (MFI of anti-ROR1 / MFI of 2nd Ab) [5]: 4
